Measurements as given in patent US8834920B2, “Liposome composition for targeting egfr receptor” (Alza Corporation, priority 2006, dated 2014).

Columns and labels:
A431 cells [1] = test: Flow cytometry (FACS) of phage binding to A431 cells; type: cell-based, human
Method: (§1) To evaluate whether the selected peptides from phage display can bind to tumor cells that overexpress EGFR, A431 cells (epidermoid cancer) or an EGFR negative tumor cells, MCF-7 (breast carcinoma) were tested in a flow cytometry assay using fluorescence detection (FACS). For P145, PP146 and their control phage, 2.5×10^5 A431 cells were resuspended in 25 μl of flow staining buffer (dPBS with 1% BSA, 0.09% sodium azide) and incubated with 25 μl of phage clones for 1 hour at 4° C.
(§2) A431 cells (epidermoid cancer) which overexpress EGFR and EGFR-negative tumor cells, MCF-7 (breast carcinoma) were tested in a flow cytometry assay. Tumor cells (A431 and MCF-7) were harvested with 0.25% tyrpsin-EDTA and washed twice with FACS staining buffer (dPBS with 1% BSA, 0.09% sodium azide). […] After binding at 4° C., cells were washed twice with FACS staining buffer to remove unbound phage and then incubated with 0.5 μg of mouse anti-M13 monoclonal antibody conjugated to FITC (Fitzgerald Industries International, Inc. Concord, Mass.) for 1 hour at 4° C. Mouse anti-M13-FITC incubated with cells without phage was used as background binding. Cells were washed twice with FACS staining buffer to remove unbound detection antibody.

EGF + sEGFR-MMB Complex = target: T1, EGF + sEGFR-MMB Complex (Homo sapiens, UniProt P00533); test: Phage ELISA on complex of EGF and sEGFR-MMB; type: binding
T1 construct: made in house
Method: (§3) The plates were held overnight at room temperature, washed twice with TBST (0.5M Tris Base, 9% NaCl, 0.05% tween, pH 7.6), and loaded with 200 μL per well of Starting Block (Pierce). […] The plates were held at room temperature for 1.5 hours for blocking. Plates were then washed twice with TBST and phage were added. The phage solutions were crude phage supernatant from overnight cultures diluted four-fold with Starting Block. After a one-hour incubation, the plates were washed thrice with TBST and 100 μL of a 1:5000 dilution of phage binding antibody conjugate (α-M13-HRP) was added to the wells. EGF was added if applicable. After a one-hour incubation the plates were washed five times with TBST, 100 μL of POD (BM Chemiluminescence ELISA substrate; Roche Applied Science) was added, and chemiluminescene recorded.

sEGFR-MMB [2] = target: T2, sEGFR-MMB (Homo sapiens, UniProt P00533); test: Phage ELISA on coated sEGFR-MMB; type: binding; conditions: P190 phage, construct SEGFR-MMB
T2 construct: made in house; host or cells: HEK 293E
Method: (§4) The protein solution was removed and wells were rinsed twice with Tris-Buffered Saline containing 0.05% Tween-20 (TBS-T) using a plate washer (Embla). The wells were blocked with Starting Block in TBS for 1 hr at room temperature and rinsed twice with TBS-T. An equal volume of phage supernatant and Starting Block in TBS were incubated in the wells for 1 hr at room temperature, and the wells were rinsed five times with TBS-T. Anti-M13/horseradish peroxidase conjugate (Amersham), diluted 1:5000 in Starting Block in TBS, was added into the wells and incubated for 1 hour at room temperature, and then the wells were rinsed five times with TBS-T. Finally, chemiluminescent peroxidase substrate (Roche) was added to the wells, and chemiluminescence was measured on a Tecan plate reader.
Phage were amplified in XL-1 Blue host cells and purified by precipitation with 6% polyethylene glycol-8000/0.5 M sodium chloride. The precipitated phage were resuspended in phosphate-buffered saline in a volume that was 1/100th the original culture volume. For competitive ELISA experiments, plates were prepared by coating wells with sEGFR-MMB or the Control-MMB followed by blocking as described above. […] The binding reaction was incubated for 1 hr at room temperature, and then bound phage were detected with anti-M13/HRP as above. […] Bound phage were washed and detected with anti-M13/HRP as described above. […]

Control-MMB = Control-MMB (Homo sapiens, UniProt P01857); test: Phage ELISA on Control-MMB; type: binding
Method: as §4
The plates were held overnight at room temperature, washed twice with TBST (0.5M Tris Base, 9% NaCl, 0.05% tween, pH 7.6), and loaded with 200 μL per well of Starting Block (Pierce). […] The plates were held at room temperature for 1.5 hours for blocking. Plates were then washed twice with TBST and phage were added. […] After a one-hour incubation the plates were washed five times with TBST, 100 μL of POD (BM Chemiluminescence ELISA substrate; Roche Applied Science) was added, and chemiluminescene recorded.

MCF-7 = test: Flow cytometry (FACS) of phage binding to MCF-7 cells; type: cell-based, human; conditions: EGFR overexpressing vs EGFR negative cells
Method: as §1, §2

sEGFR-His6 = target: T3, sEGFR-His6 (Homo sapiens, UniProt P00533); test: Phage ELISA on coated sEGFR-His6; type: binding; conditions: P190 phage, construct sEGFR-His6
T3 construct: made in house; host or cells: HEK293E (transient, secreted)
Method: as §3

A431 cells [3] = test: FACS of P190-MMB constructs or cetuximab on A431 cells; type: cell-based, human
sEGFR-MMB [4] = target: T2, sEGFR-MMB; test: P190-MMB constructs, solid phase binding (BIAcore, ELISA) to immobilized sEGFR-MMB
Text: In contrast, 190-MMB as the 4316 construct, binds EGFR and the presence of excess EGF promotes its binding.

EGFR = test: FACE (Fast Activated Cell-based ELISA) of EGFR phosphorylation

## DPCTWEVWGRECLQ [Peptide P190]
A431 cells [1]
  binding to A431 cells in the presence of EGF: increased
  binding to A431 cells in the presence of EGF and cetuximab: decreases
A431 cells [1]; anti-phage-FITC, 4° C.
  binding to A431 tumor cells: bind
EGF + sEGFR-MMB Complex; P190 phage, construct SEGFR-MMB + EGF
  Relative Signal: 29408 ± 259
EGF + sEGFR-MMB Complex; phage ELISA
  binding to dimeric EGFR in the presence of EGF or TGF-a: increased
sEGFR-MMB [2]
  Relative Signal: 3937 ± 335
Control-MMB
  binding to Control-MMB: fails to bind
MCF-7
  binding to A431 compared to MCF-7: bound more effectively to A431 cells
sEGFR-His6
  Relative Signal: 6

## KTCVSTTFDLWFVCFA (Random peptide) [Peptide P176]
A431 cells [1]
  binding to A431 relative to positive control phage displaying EGF: comparable

## SGCLDALWQCVY (Random peptide) [Peptide P174]
A431 cells [1]
  binding to A431 relative to positive control phage displaying EGF: comparable
MCF-7
  binding to A431 compared to MCF-7: greater to A431 than to MCF-7

## TLCRSFFHPLCYA (Random peptide) [Peptide P146]
A431 cells [1]
  binding to A431 relative to positive control phage displaying EGF: weaker

## VLCHRYYHPICYT [Peptide P145]
A431 cells [1]
  binding to A431 relative to positive control phage displaying EGF: weaker
MCF-7
  binding to A431 compared to MCF-7: greater binding to A431 than MCF-7 cells

B1: 4316: P190-MMB construct with the longest linker, Flex GGGGS, n 4 (protein)
chain: GGDPCTWEVWGRECLQGGGGSGGGGSGGGGSGGGGSCPPCPAPEAAGGPSVFLFPPKPKDTLMISRTPEVTCVVVDVSQEDPEVQFNWYVDGVEVHNAKTKPREEQFNSTYRVVSVLTVLHQDWLNGKEYKCKVSNKGLPSSIEKTISKAKGQPREPQVYTLPPSQEEMTKNQVSLTCLVKGFYPSDIAVEWESNGQPENNYKTTPPVLDSDGSFFLYSRLTVDKSRWQEGNVFSCSVMHEALHNHYTQKSLSLSLGK
A431 cells [3]; excess rhEGF
  effect of EGF on binding to A431: enhanced binding
sEGFR-MMB [4]
  on-rate: much more pronounced on-rate than the other constructs
sEGFR-MMB [4]; ELISA and FACS
  binding rank among linker variants: best binder
EGFR
  interference with EGF activation of EGFR: nor interfere with EGF activation of EGFR
EGFR; absence of EGF
  EGFR phosphorylation (receptor activation): did not induce EGFR phosphorylation

B2: 4315: P190-MMB construct, Flex GGGGS, n 2 (protein)
chain: GGDPCTWEVWGRECLQGGGGSGGGGSCPPCPAPEAAGGPSVFLFPPKPKDTLMISRTPEVTCVVVDVSQEDPEVQFNWYVDGVEVHNAKTKPREEQFNSTYRVVSVLTVLHQDWLNGKEYKCKVSNKGLPSSIEKTISKAKGQPREPQVYTLPPSQEEMTKNQVSLTCLVKGFYPSDIAVEWESNGQPENNYKTTPPVLDSDGSFFLYSRLTVDKSRWQEGNVFSCSVMHEALHNHYTQKSLSLSLGK
A431 cells [3]
  binding to A431: little binding
